Measured values from the supplement of paper PMC9876800.

Tested on: peptide library, one residue held at a place counted from the S/T acceptor
Assay: relative phosphorylation of the sub-library (ratio to the mean residue at this position); higher = residue favoured
Summary of the method: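 Purified recombinant kinases, either human or orthologue constructs, were incubated in 384-well plates with biotinylated degenerate peptide sub-libraries. Each sub-library fixed one residue at one position around a central Ser/Thr. Peptides at 50 μM and 50 μM ATP spiked with γ-32P-ATP were used for 90 min under kinase-specific conditions, and spots on streptavidin membranes were phosphorimaged and quantified by densitometry. Relative sub-library phosphorylation is expressed as a ratio to the mean residue at that position.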

Chain of RPS6KA1, construct: Full length, human (Q15418 whole entry, looked up): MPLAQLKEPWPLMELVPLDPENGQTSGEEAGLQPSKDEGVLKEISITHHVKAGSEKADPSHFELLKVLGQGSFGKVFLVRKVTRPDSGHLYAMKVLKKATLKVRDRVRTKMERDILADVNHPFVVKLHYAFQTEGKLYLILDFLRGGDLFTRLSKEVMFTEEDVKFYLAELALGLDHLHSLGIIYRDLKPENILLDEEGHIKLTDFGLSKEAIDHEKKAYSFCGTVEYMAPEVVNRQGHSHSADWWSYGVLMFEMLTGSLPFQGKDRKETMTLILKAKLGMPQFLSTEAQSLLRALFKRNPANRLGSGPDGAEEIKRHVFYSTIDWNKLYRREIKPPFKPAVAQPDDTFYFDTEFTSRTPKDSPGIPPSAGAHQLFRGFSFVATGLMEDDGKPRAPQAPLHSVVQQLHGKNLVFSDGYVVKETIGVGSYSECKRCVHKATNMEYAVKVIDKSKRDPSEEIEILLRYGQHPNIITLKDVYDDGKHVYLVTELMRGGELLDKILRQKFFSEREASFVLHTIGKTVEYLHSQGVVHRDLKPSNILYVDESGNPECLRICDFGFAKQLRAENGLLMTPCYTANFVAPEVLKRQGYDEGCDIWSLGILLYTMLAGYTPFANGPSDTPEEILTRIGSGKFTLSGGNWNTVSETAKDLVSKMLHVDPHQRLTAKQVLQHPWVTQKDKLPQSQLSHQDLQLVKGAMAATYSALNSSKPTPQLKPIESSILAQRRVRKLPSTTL
Chain of WNK1, construct: aa171-529, human (Q9H4A3 171-529, looked up): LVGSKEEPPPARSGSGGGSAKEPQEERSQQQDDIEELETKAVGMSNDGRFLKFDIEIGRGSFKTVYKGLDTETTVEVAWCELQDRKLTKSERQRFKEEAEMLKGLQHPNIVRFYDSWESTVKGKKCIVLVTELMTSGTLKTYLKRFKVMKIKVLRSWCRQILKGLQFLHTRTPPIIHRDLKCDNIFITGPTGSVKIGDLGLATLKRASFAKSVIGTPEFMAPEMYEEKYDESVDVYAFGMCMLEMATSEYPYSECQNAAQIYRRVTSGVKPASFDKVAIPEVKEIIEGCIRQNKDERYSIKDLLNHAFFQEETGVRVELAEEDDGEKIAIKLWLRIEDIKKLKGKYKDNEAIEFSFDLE
Chain of CLK4, construct: aa128-481, human (Q9HAZ1 128-481, looked up): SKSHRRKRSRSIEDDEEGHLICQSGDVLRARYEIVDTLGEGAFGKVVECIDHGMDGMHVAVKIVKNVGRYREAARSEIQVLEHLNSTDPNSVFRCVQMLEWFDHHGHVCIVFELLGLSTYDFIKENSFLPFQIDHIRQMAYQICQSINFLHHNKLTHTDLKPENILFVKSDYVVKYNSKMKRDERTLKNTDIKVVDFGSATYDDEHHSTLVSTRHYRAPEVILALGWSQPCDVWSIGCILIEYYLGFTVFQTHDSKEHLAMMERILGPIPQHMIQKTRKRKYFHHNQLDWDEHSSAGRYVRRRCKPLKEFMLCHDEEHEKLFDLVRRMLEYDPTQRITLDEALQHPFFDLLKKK

WNK1, construct: aa171-529, human (from UniProt Q9H4A3)
relative phosphorylation
Conditions | at +1 | at +2 | at +3 | at +4 | at -1 | at -2 | at -3 | at -4 | at -5
A fixed | 0.732 | 1.03 | 0.811 | 0.927 | 1.25 | 1.57 | 0.952 | 1.02 | 0.944
D fixed | 0.238 | 1.07 | 0.679 | 0.746 | 0.328 | 0.241 | 0.314 | 0.487 | 0.493
E fixed | 0.257 | 0.75 | 0.619 | 0.759 | 0.445 | 0.263 | 0.371 | 0.536 | 0.53
F fixed | 1.18 | 0.759 | 1.52 | 1.24 | 0.802 | 0.764 | 0.799 | 0.86 | 1.12
G fixed | 0.84 | 0.934 | 0.828 | 0.839 | 1.1 | 2.18 | 0.926 | 0.88 | 0.867
H fixed | 0.762 | 0.794 | 1.17 | 0.888 | 0.887 | 1.31 | 0.979 | 1 | 0.932
I fixed | 1.17 | 1.24 | 0.89 | 1.13 | 0.75 | 0.748 | 0.85 | 0.951 | 0.955
K fixed | 1.22 | 1.19 | 1.43 | 1.5 | 2.19 | 1.44 | 2.48 | 2.01 | 1.82
L fixed | 1.34 | 0.984 | 0.958 | 1.02 | 0.891 | 0.641 | 0.951 | 1.02 | 1.22
M fixed | 1.82 | 0.899 | 0.954 | 0.952 | 1.07 | 0.597 | 0.855 | 0.952 | 0.974
N fixed | 0.895 | 0.665 | 0.783 | 0.719 | 0.719 | 0.714 | 0.606 | 0.872 | 0.712
P fixed | 0.288 | 0.457 | 0.582 | 0.936 | 0.586 | 1.25 | 1.01 | 0.763 | 0.819
Q fixed | 1.18 | 0.65 | 0.734 | 0.861 | 1.21 | 0.954 | 0.845 | 0.795 | 0.698
R fixed | 2.01 | 2.97 | 1.69 | 1.37 | 2.5 | 2.25 | 2.63 | 1.83 | 1.54
V fixed | 0.986 | 1.21 | 0.809 | 0.992 | 0.971 | 0.957 | 0.961 | 1.06 | 1.12
W fixed | 0.888 | 0.635 | 1.23 | 1.08 | 0.574 | 0.462 | 0.621 | 0.856 | 1.11
Y fixed | 1.18 | 0.759 | 1.31 | 1.03 | 0.735 | 0.669 | 0.858 | 1.1 | 1.15
pThr fixed | 0.58 | 0.863 | 0.707 | 0.803 | 0.61 | 0.852 | 0.854 | 0.882 | 0.702
pTyr fixed | 0.662 | 0.911 | 0.849 | 0.78 | 0.789 | 0.573 | 0.806 | 0.666 | 0.637

CLK4, construct: aa128-481, human (from UniProt Q9HAZ1)
relative phosphorylation
Conditions | at +1 | at +2 | at +3 | at +4 | at -1 | at -2 | at -3 | at -4 | at -5
A fixed | 0.617 | 1.09 | 0.764 | 0.712 | 0.792 | 1.63 | 0.609 | 0.923 | 0.926
D fixed | 0.293 | 0.989 | 0.691 | 1.07 | 0.403 | 0.553 | 0.453 | 0.649 | 0.735
E fixed | 0.565 | 0.943 | 0.592 | 1.1 | 0.48 | 1.52 | 0.374 | 0.721 | 0.595
F fixed | 0.435 | 0.928 | 0.771 | 0.91 | 0.705 | 0.337 | 0.327 | 0.858 | 1.39
G fixed | 0.628 | 1.04 | 0.925 | 0.889 | 0.975 | 0.943 | 0.553 | 1.09 | 1.02
H fixed | 0.7 | 1.28 | 1.1 | 1.06 | 1.18 | 0.546 | 0.709 | 0.979 | 1.05
I fixed | 1 | 0.795 | 0.61 | 0.869 | 0.55 | 0.343 | 0.332 | 0.857 | 0.786
K fixed | 0.807 | 1.36 | 2.5 | 1.26 | 2.09 | 0.978 | 2.16 | 1.72 | 1.47
L fixed | 0.784 | 0.877 | 0.731 | 0.8 | 0.935 | 0.461 | 0.394 | 0.781 | 0.891
M fixed | 0.727 | 0.837 | 0.717 | 1.02 | 1.04 | 0.443 | 0.429 | 0.884 | 0.69
N fixed | 0.498 | 0.804 | 0.822 | 0.935 | 0.865 | 0.42 | 0.476 | 0.807 | 0.881
P fixed | 5.64 | 1.21 | 2.04 | 0.901 | 1 | 0.453 | 0.405 | 0.806 | 0.909
Q fixed | 0.793 | 0.929 | 0.795 | 1.07 | 1.12 | 0.717 | 0.509 | 0.839 | 0.827
R fixed | 0.853 | 1.33 | 1.7 | 1.28 | 2.36 | 6.56 | 8.11 | 2.25 | 1.82
V fixed | 1.59 | 1.04 | 0.67 | 0.772 | 0.704 | 0.386 | 0.331 | 0.755 | 0.771
W fixed | 0.486 | 0.754 | 0.763 | 1.25 | 0.895 | 0.348 | 0.429 | 1.1 | 1.24
Y fixed | 0.574 | 0.792 | 0.8 | 1.1 | 0.89 | 0.356 | 0.399 | 0.973 | 1
pThr fixed | 0.796 | 1.92 | 0.773 | 2.01 | 0.343 | 0.467 | 0.603 | 0.846 | 0.81
pTyr fixed | 0.516 | 0.647 | 1.52 | 1.16 | 0.546 | 0.295 | 0.356 | 0.732 | 0.938

RPS6KA1, construct: Full length, human (from UniProt Q15418)
relative phosphorylation
Conditions | at +1 | at +2 | at +3 | at +4 | at -1 | at -2 | at -3 | at -4 | at -5
A fixed | 0.899 | 1.02 | 0.983 | 0.839 | 0.926 | 0.75 | 0.694 | 1.2 | 0.916
D fixed | 0.459 | 0.887 | 1.1 | 1.25 | 0.593 | 0.724 | 0.524 | 0.574 | 0.439
E fixed | 0.784 | 0.691 | 1.13 | 1.03 | 0.408 | 0.614 | 0.424 | 0.703 | 0.364
F fixed | 1.09 | 0.767 | 1 | 0.816 | 0.796 | 0.684 | 0.365 | 0.817 | 0.822
G fixed | 0.654 | 0.939 | 1.08 | 0.985 | 1.19 | 1.2 | 0.737 | 1.22 | 0.977
H fixed | 1.15 | 1.55 | 1.24 | 1.05 | 1.06 | 1.14 | 0.549 | 0.857 | 0.935
I fixed | 1.3 | 1.05 | 0.853 | 0.76 | 0.404 | 0.546 | 0.331 | 0.931 | 0.849
K fixed | 0.881 | 0.77 | 0.686 | 1.14 | 1.21 | 1.86 | 1.32 | 1.63 | 1.84
L fixed | 0.969 | 0.816 | 1.05 | 0.785 | 0.942 | 1.14 | 0.388 | 0.895 | 1.18
M fixed | 1.1 | 0.774 | 0.93 | 0.791 | 1.04 | 0.897 | 0.487 | 1.05 | 0.72
N fixed | 1.02 | 1.04 | 0.822 | 1.01 | 1.14 | 0.732 | 0.506 | 0.722 | 0.67
P fixed | 0.625 | 0.615 | 0.914 | 1.47 | 2.71 | 0.581 | 0.76 | 0.979 | 0.993
Q fixed | 1.39 | 0.817 | 0.94 | 1.21 | 0.997 | 1.15 | 0.538 | 0.83 | 0.696
R fixed | 1.07 | 1.2 | 0.875 | 0.914 | 1.25 | 3.29 | 8.19 | 2.05 | 2.91
V fixed | 1.62 | 1.14 | 0.801 | 0.819 | 0.592 | 0.441 | 0.315 | 0.79 | 0.75
W fixed | 0.884 | 1.16 | 1.34 | 1.16 | 0.739 | 0.597 | 0.482 | 0.978 | 1.1
Y fixed | 1.1 | 1.77 | 1.26 | 0.969 | 1.01 | 0.649 | 0.39 | 0.779 | 0.841
pThr fixed | 1.51 | 0.917 | 1.17 | 1.95 | 0.284 | 0.293 | 0.348 | 0.573 | 0.527
pTyr fixed | 1.32 | 0.957 | 1.59 | 1.17 | 0.522 | 0.33 | 0.332 | 0.413 | 0.526
